Test results taken from IntAct's records for PubMed 28533415.

B1: Vacuolar protein 8 (Saccharomyces cerevisiae), P39968 (parent)
chain: MGSCCSCLKDSSDEASVSPIADNEREAVTLLLGYLEDKDQLDFYSGGPLKALTTLVYSDNLNLQRSAALAFAEITEKYVRQVSREVLEPILILLQSQDPQIQVAACAALGNLAVNNENKLLIVEMGGLEPLINQMMGDNVEVQCNAVGCITNLATRDDNKHKIATSGALIPLTKLAKSKHIRVQRNATGALLNMTHSEENRKELVNAGAVPVLVSLLSSTDPDVQYYCTTALSNIAVDEANRKKLAQTEPRLVSKLVSLMDSPSSRVKCQATLALRNLASDTSYQLEIVRAGGLPHLVKLIQSDSIPLVLASVACIRNISIHPLNEGLIVDAGFLKPLVRLLDYKDSEEIQCHAVSTLRNLAASSEKNRKEFFESGAVEKCKELALDSPVSVQSEISACFAILALADVSKLDLLEANILDALIPMTFSQNQEVSGNAAAALANLCSRVNNYTKIIEAWDRPNEGIRGFLIRFLKSDYATFEHIALWTILQLLESHNDKVEDLVKNDDDIINGVRKMADVTFERLQRSGIDVKNPGSNNNPSSNDNNSNNNDTGSEHQPVEDASLELYNITQQILQFLH
partner: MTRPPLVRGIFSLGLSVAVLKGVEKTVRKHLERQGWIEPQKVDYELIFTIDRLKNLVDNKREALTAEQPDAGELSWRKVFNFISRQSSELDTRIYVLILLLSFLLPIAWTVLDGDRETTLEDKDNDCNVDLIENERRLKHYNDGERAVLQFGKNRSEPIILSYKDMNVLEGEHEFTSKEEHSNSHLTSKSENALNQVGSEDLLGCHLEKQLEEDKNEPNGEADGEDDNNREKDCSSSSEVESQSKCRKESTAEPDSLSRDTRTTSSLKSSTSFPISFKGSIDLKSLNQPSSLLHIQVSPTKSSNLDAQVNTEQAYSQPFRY
B2: Vacuolar protein 8 (Saccharomyces cerevisiae), P39968 (parent)
chain: B1 chain
partner: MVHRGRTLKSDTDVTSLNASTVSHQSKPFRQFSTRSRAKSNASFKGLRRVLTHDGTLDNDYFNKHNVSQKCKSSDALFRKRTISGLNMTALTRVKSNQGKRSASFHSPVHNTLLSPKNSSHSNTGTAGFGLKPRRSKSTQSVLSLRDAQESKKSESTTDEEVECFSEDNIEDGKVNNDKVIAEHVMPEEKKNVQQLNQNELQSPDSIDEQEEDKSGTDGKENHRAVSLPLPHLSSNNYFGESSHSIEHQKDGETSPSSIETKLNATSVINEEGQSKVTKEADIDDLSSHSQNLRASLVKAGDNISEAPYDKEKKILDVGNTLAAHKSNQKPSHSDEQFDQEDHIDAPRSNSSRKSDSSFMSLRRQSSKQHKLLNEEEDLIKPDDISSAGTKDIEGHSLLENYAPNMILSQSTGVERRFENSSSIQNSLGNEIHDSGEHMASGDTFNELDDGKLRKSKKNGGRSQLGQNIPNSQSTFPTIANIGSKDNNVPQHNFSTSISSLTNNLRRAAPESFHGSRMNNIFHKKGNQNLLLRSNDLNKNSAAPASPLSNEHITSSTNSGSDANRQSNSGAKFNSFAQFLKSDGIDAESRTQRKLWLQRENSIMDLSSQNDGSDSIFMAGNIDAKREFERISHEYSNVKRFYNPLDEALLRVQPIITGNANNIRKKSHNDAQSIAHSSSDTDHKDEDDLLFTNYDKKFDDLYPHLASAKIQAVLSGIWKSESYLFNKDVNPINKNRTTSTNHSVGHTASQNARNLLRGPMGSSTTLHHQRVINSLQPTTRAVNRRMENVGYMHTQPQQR
B3: Vacuolar protein 8 (Saccharomyces cerevisiae), P39968 (parent)
chain: B1 chain
partner: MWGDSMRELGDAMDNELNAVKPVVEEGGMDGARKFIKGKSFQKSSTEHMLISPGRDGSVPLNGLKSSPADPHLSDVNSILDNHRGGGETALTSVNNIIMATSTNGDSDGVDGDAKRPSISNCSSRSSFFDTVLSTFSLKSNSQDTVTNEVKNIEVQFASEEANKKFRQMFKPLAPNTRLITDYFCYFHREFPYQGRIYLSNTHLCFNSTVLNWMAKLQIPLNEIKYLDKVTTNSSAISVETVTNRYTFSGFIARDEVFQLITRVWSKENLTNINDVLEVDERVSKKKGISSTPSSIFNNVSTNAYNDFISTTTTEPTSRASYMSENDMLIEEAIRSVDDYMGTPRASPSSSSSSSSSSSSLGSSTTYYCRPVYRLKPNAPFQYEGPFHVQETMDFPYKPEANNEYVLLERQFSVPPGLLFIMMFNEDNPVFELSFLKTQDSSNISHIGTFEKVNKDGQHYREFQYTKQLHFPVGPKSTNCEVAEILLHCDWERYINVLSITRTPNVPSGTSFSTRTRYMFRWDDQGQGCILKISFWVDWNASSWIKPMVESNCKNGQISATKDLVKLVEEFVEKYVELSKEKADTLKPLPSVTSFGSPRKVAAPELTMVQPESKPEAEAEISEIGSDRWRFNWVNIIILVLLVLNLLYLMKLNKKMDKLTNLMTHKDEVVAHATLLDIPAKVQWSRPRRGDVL
B4: Nucleus-vacuole junction protein 1 (Saccharomyces cerevisiae), P38881 (parent)
chain: B1 partner
partner: B1 chain

Variants of: B1
Settings: with nvj1_yeast NVJ1, P38881

Row | Variant | effect of a mutation on the interaction
1 | MGSCCSCLKDSSDEASVSPIADNEREAVTLLLGYLEDKDQLDFYSGGPLKRLTTLVYSDNLNLQRSAALAFAEITEKYVRQVSREVLEPILILLQSQDPQIQVAACAALGNLAVNNENKLLIVEMGGLEPLINQMMGDNVEVQCNAVGCITNLATRDDNKHKIATSGALIPLTKLAKSKHIRVQRNATGALLNMTHSEENRKELVNAGAVPVLVSLLSSTDPDVQYYCTTALSNIAVDEANRKKLAQTEPRLVSKLVSLMDSPSSRVKCQATLALRNLASDTSYQLEIVRAGGLPHLVKLIQSDSIPLVLASVACIRNISIHPLNEGLIVDAGFLKPLVRLLDYKDSEEIQCHAVSTLRNLAASSEKNRKEFFESGAVEKCKELALDSPVSVQSEISACFAILALADVSKLDLLEANILDALIPMTFSQNQEVSGNAAAALANLCSRVNNYTKIIEAWDRPNEGIRGFLIRFLKSDYATFEHIALWTILQLLESHNDKVEDLVKNDDDIINGVRKMADVTFERLQRSGIDVKNPGSNNNPSSNDNNSNNNDTGSEHQPVEDASLELYNITQQILQFLH [A51R] | disrupting interaction strength
2 | MGSCCSCLKDSSDEASVSPIADNEREAVTLLLGYLEDKDQLDFYSGGPLKALTTRVYSDNLNLQRSAALAFAEITEKYVRQVSREVLEPILILLQSQDPQIQVAACAALGNLAVNNENKLLIVEMGGLEPLINQMMGDNVEVQCNAVGCITNLATRDDNKHKIATSGALIPLTKLAKSKHIRVQRNATGALLNMTHSEENRKELVNAGAVPVLVSLLSSTDPDVQYYCTTALSNIAVDEANRKKLAQTEPRLVSKLVSLMDSPSSRVKCQATLALRNLASDTSYQLEIVRAGGLPHLVKLIQSDSIPLVLASVACIRNISIHPLNEGLIVDAGFLKPLVRLLDYKDSEEIQCHAVSTLRNLAASSEKNRKEFFESGAVEKCKELALDSPVSVQSEISACFAILALADVSKLDLLEANILDALIPMTFSQNQEVSGNAAAALANLCSRVNNYTKIIEAWDRPNEGIRGFLIRFLKSDYATFEHIALWTILQLLESHNDKVEDLVKNDDDIINGVRKMADVTFERLQRSGIDVKNPGSNNNPSSNDNNSNNNDTGSEHQPVEDASLELYNITQQILQFLH [L55R] | disrupting interaction strength

Variants of: B1
Settings: with nvj1_yeast NVJ1, P38881
Remark: another data set of the same source

Row | Variant | effect of a mutation on the interaction
3 | MGSCCSCLKDSSDEASVSPIADNEREAVTLLLGYLEDKDQLDFYSGGPLKALTTLVYSDNLNLQRSAALAFAEITEKYVRQVSREVLEPILILLQSQDPQIQVAACAALGNLAVNNENKLLIVEMGGLEPLINQMMGDNVEVQCNAVGCITNLATRDDNKHKIATSGALIPLTKLAKSKHIRVQRNATGALLNMTHSEENRKELVNAGAVPVLVSLLSSTDPDVQYYCTTALSNIAVDEANRKKLAQTEPRLVSKLVSLMDSPSSRVKCQATLALENLASDTSYQLEIVRAGGLPHLVKLIQSDSIPLVLASVACIENISIHPLNEGLIVDAGFLKPLVRLLDYKDSEEIQCHAVSTLENLAASSEKNRKEFFESGAVEKCKELALDSPVSVQSEISACFAILALADVSKLDLLEANILDALIPMTFSQNQEVSGNAAAALANLCSRVNNYTKIIEAWDRPNEGIRGFLIRFLKSDYATFEHIALWTILQLLESHNDKVEDLVKNDDDIINGVRKMADVTFERLQRSGIDVKNPGSNNNPSSNDNNSNNNDTGSEHQPVEDASLELYNITQQILQFLH [R276E;R317E;R359E] | disrupting interaction strength

Variants of: B2
Settings: with tco89_yeast TCO89, Q08921

Row | Variant | effect of a mutation on the interaction
4 | MGSCCSCLKDSSDEASVSPIADNEREAVTLLLGYLEDKDQLDFYSGGPLKALTTLVYSDNLNLQRSAALAFAEITEKYVRQVSREVLEPILILLQSQDPQIQVAACAALGNLAVNNENKLLIVEMGGLEPLINQMMGDNVEVQCNAVGCITNLATRDDNKHKIATSGALIPLTKLAKSKHIRVQRNATGALLNMTHSEENRKELVNAGAVPVLVSLLSSTDPDVQYYCTTALSNIAVDEANRKKLAQTEPRLVSKLVSLMDSPSSRVKCQATLALENLASDTSYQLEIVRAGGLPHLVKLIQSDSIPLVLASVACIENISIHPLNEGLIVDAGFLKPLVRLLDYKDSEEIQCHAVSTLENLAASSEKNRKEFFESGAVEKCKELALDSPVSVQSEISACFAILALADVSKLDLLEANILDALIPMTFSQNQEVSGNAAAALANLCSRVNNYTKIIEAWDRPNEGIRGFLIRFLKSDYATFEHIALWTILQLLESHNDKVEDLVKNDDDIINGVRKMADVTFERLQRSGIDVKNPGSNNNPSSNDNNSNNNDTGSEHQPVEDASLELYNITQQILQFLH [R276E;R317E;R359E] | with no effect

Variants of: B3
Settings: with lam6_yeast LAM6, Q08001

Row | Variant | effect of a mutation on the interaction
5 | MGSCCSCLKDSSDEASVSPIADNEREAVTLLLGYLEDKDQLDFYSGGPLKALTTLVYSDNLNLQRSAALAFAEITEKYVRQVSREVLEPILILLQSQDPQIQVAACAALGNLAVNNENKLLIVEMGGLEPLINQMMGDNVEVQCNAVGCITNLATRDDNKHKIATSGALIPLTKLAKSKHIRVQRNATGALLNMTHSEENRKELVNAGAVPVLVSLLSSTDPDVQYYCTTALSNIAVDEANRKKLAQTEPRLVSKLVSLMDSPSSRVKCQATLALENLASDTSYQLEIVRAGGLPHLVKLIQSDSIPLVLASVACIENISIHPLNEGLIVDAGFLKPLVRLLDYKDSEEIQCHAVSTLENLAASSEKNRKEFFESGAVEKCKELALDSPVSVQSEISACFAILALADVSKLDLLEANILDALIPMTFSQNQEVSGNAAAALANLCSRVNNYTKIIEAWDRPNEGIRGFLIRFLKSDYATFEHIALWTILQLLESHNDKVEDLVKNDDDIINGVRKMADVTFERLQRSGIDVKNPGSNNNPSSNDNNSNNNDTGSEHQPVEDASLELYNITQQILQFLH [R276E;R317E;R359E] | with no effect

Variants of: B4
Settings: with vac8_yeast VAC8, P39968

Row | Variant | effect of a mutation on the interaction
6 | MTRPPLVRGIFSLGLSVAVLKGVEKTVRKHLERQGWIEPQKVDYELIFTIDRLKNLVDNKREALTAEQPDAGELSWRKVFNFISRQSSELDTRIYVLILLLSFLLPIAWTVLDGDRETTLEDKDNDCNVDLIENERRLKHYNDGERAVLQFGKNRSEPIILSYKDMNVLEGEHEFTSKEEHSNSHLTSKSENALNQVGSEDLLGCHLEKQLEEDKNEPNGEADGEDDNNREKDCSSSSEVESQSKCRKESTAEPDSLSRDTRTTSSLKSSTSFPISFKGSIDLKSLNQPSSLLHRQVSPTKSSNLDAQVNTEQAYSQPFRY [I295R] | decreasing interaction strength
7 | MTRPPLVRGIFSLGLSVAVLKGVEKTVRKHLERQGWIEPQKVDYELIFTIDRLKNLVDNKREALTAEQPDAGELSWRKVFNFISRQSSELDTRIYVLILLLSFLLPIAWTVLDGDRETTLEDKDNDCNVDLIENERRLKHYNDGERAVLQFGKNRSEPIILSYKDMNVLEGEHEFTSKEEHSNSHLTSKSENALNQVGSEDLLGCHLEKQLEEDKNEPNGEADGEDDNNREKDCSSSSEVESQSKCRKESTAEPDSLSRDTRTTSSLKSSTSFPISFKGSIDLKSLNQPSSLLHRQVSPTKSSNLDRQVNTEQAYSQPERY [I295R;A307R;F319E] | disrupting interaction strength
